Measured values taken from KR20160093503A (dated 2016).

Tests used:
[1] = target: T1, DRS (Aspartyl-tRNA synthetase), purified recombinant (UniProt P14868 1-501, limits assumed); experiment: Luminex multiplex bead assay, antigen coupled to beads, relative to CRS
T1 construct: also called 아스파틸-tRNA 합성효소
T1 sequence (looked up): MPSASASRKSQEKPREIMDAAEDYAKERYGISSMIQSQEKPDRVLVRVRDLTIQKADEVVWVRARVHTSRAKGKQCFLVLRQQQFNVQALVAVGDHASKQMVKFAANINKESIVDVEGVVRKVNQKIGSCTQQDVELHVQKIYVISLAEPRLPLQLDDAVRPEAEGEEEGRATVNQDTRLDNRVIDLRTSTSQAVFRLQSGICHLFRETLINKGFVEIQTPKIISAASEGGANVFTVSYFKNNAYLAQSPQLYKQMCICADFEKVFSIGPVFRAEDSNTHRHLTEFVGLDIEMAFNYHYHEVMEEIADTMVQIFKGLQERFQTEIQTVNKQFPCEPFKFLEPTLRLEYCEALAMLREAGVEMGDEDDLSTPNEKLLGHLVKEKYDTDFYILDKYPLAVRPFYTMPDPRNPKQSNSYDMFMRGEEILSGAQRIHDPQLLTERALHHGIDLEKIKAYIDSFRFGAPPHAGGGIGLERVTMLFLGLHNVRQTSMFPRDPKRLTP

[2] = target: T2, AIMP1 (Aminoacyl-tRNA-synthetase-interacting multifunctional protein 1), purified recombinant (UniProt Q12904 1-312, limits assumed); experiment: as above
T2 construct: also called AIMP1(p43); p43
T2 sequence (looked up): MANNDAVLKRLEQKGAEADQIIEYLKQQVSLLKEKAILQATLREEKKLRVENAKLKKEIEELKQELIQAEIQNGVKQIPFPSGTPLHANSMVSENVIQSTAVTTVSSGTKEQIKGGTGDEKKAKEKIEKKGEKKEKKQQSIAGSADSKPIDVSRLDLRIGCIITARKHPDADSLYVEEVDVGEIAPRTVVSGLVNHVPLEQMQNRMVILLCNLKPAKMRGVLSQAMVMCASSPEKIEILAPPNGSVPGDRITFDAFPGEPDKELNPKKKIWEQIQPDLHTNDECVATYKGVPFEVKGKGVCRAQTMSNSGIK

[3] = target: T3, WRS (Tryptophanyl-tRNA synthetase), purified recombinant (UniProt P23381 1-471, limits assumed); experiment: as above
T3 construct: also called 트립토파닐-tRNA 합성효소
T3 sequence (looked up): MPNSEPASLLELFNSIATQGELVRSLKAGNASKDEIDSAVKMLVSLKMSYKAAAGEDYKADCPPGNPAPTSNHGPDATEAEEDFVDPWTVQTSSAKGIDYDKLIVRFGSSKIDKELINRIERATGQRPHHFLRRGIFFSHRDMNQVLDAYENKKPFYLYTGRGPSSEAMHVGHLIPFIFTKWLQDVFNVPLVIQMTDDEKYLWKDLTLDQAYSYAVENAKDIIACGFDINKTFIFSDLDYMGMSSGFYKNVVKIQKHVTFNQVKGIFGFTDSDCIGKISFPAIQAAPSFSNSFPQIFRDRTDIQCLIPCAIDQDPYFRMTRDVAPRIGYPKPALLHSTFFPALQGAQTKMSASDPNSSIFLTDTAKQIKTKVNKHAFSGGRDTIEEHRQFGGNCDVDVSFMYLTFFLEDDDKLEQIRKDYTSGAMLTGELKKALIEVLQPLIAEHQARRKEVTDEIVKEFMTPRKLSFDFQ

[4] = target: T4, HRS (Histidyl-tRNA synthetase), purified recombinant (UniProt P12081 1-509, limits assumed); experiment: as above
T4 construct: also called 히스티딜-tRNA 합성효소
T4 sequence (looked up): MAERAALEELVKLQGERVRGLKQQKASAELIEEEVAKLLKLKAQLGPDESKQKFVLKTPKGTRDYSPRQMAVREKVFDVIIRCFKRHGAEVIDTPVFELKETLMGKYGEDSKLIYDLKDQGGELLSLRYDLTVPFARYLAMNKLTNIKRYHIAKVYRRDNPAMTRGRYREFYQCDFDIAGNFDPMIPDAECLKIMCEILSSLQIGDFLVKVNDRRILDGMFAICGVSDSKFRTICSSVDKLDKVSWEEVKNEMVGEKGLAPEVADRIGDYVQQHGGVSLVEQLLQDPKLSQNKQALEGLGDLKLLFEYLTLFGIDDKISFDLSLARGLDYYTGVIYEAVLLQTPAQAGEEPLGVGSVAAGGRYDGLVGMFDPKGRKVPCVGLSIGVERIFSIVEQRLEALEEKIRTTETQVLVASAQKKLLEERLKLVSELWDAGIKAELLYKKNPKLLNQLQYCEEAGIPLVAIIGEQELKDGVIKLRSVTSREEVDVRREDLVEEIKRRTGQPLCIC

[5] = target: T5, EPRS WHEP domain (Glutamyl-prolyl tRNA synthetase), purified recombinant (UniProt P07814 749-956, limits assumed); experiment: as above
T5 construct: domain: WHEP domain; also called 글루타밀-프로릴-tRNA 합성효소
T5 sequence (looked up): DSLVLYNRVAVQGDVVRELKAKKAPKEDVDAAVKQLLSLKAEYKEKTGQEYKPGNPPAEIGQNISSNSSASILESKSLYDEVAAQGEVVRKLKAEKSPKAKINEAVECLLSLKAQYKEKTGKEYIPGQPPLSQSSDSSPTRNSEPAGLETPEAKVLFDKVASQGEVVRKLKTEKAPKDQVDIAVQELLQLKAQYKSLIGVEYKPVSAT

[6] = target: T6, AIMP3 (Aminoacyl-tRNA-synthetase-interacting multifunctional protein 3), purified recombinant (UniProt O43324 1-174, limits assumed); experiment: as above
T6 construct: also called AIMP3(p18); p18
T6 sequence (looked up): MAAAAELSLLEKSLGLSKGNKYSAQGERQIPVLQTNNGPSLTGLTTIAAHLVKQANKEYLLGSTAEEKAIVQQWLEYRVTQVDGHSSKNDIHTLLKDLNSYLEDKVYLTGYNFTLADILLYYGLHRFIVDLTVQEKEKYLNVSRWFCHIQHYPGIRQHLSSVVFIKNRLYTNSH

[7] = target: T7, CRS (Cysteinyl-tRNA synthetase), purified recombinant antigen (human, UniProt P49589 1-748, limits assumed); experiment: SPR (ProteOn XPR36), CRS amine-coupled on GLC chip, scFv 500-30 nM as analyte, 25 C
T7 construct: also called CRS 항원; 재조합 CRS 표준물질
T7 sequence (looked up): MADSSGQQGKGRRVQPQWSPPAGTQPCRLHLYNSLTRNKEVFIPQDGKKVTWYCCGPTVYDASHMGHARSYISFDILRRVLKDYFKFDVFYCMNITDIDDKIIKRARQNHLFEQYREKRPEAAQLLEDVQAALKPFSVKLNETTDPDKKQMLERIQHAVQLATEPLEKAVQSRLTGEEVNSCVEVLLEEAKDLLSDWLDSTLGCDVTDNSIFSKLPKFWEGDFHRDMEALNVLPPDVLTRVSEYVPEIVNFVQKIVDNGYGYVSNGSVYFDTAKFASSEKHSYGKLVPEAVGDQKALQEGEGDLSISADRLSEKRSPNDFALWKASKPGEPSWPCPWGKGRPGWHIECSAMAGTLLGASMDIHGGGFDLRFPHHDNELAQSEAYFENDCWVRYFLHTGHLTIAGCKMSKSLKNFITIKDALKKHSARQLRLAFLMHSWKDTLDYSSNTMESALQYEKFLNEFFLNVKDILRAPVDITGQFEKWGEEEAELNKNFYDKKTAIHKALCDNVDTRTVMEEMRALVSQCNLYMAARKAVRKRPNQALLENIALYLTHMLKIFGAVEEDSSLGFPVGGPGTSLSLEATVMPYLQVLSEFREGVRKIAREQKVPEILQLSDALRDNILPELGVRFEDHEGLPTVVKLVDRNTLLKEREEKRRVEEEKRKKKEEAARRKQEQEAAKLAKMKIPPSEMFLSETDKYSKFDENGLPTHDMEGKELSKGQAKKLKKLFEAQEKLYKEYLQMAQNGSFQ

교차 반응성 (cross-reactivity) [1]: ≤ 10%
교차 반응성 (cross-reactivity) [2]: ≤ 10%
교차 반응성 (cross-reactivity) [3]: ≤ 10%
교차 반응성 (cross-reactivity) [4]: ≤ 10%
교차 반응성 (cross-reactivity) [5]: ≤ 10%
교차 반응성 (cross-reactivity) [6]: ≤ 10%
Kd [7]: 60 nM
B1: anti-CRS scFv Biocon-K1 (scFv)
scFv: EVQLLESGGGLVQPVGSLRLSCAASGFTFSNYAMSWVRQAPGKGLEWVSWIYSKGRSTYYGDSAKGRFTISRDNSKNTLYLQMNSLRAEDTAVYYCAKRDNAFDYWGQGTLVTVSSGGGGSGGGGSGGGGSQSVLTQPPSASGTPGQRVTISCSGSSSNIGNNYVYWYQQLPGTAPKLLIYADSQRPSGVPDRFSGSKSGTSASLAISGLRSEDEADYYCGAWDSSLNGYVFGGGTKLTVL
notes: It was expressed from pComb3X in the E. coli periplasm, purified on Ni-NTA and detected with anti-HA; Human VH3-23/VL1g framework; also called 항 CRS scFv 항체; 본 발명의 항체
